T1: TNFR1 (Homo sapiens, UniProt P19438)
T1 chain: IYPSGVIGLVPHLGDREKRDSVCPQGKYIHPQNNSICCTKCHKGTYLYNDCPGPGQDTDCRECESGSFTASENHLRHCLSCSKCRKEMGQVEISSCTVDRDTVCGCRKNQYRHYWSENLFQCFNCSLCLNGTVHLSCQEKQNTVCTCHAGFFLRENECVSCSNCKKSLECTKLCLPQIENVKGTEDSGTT

B1: E86C (designed binder)
chain: MTLQELLREEALRRAEAEAFRYALELLAEKFPEQKEYLLDLAEEIESQIRSLSGVDVEDVRKFLDKEWAWVKELLAEHPAELAEVCAARAARLAELRAEVEAKVAA
B2: E77M (designed binder)
chain: B1 chain with E77M, C86E
B3: D59W (designed binder)
chain: B1 chain with D59W, C86E
B4: Q4I (designed binder)
chain: B1 chain with Q4I, C86E
B5: E84Y (designed binder)
chain: B1 chain with E84Y, C86E
B6: A87L (designed binder)
chain: B1 chain with C86E, A87L
B7: E95A (designed binder)
chain: B1 chain with C86E, E95A
B8: E84A (designed binder)
chain: B1 chain with E84A, C86E
B9: K72E (designed binder)
chain: B1 chain with K72E, C86E
B10: R92I (designed binder)
chain: B1 chain with C86E, R92I
B11: Q4A (designed binder)
chain: B1 chain with Q4A, C86E
B12: K103R (designed binder)
chain: B1 chain with C86E, K103R
B13: K66C (designed binder)
chain: B1 chain with K66C, C86E
B14: D40N (designed binder)
chain: B1 chain with D40N, C86E
B15: S51I (designed binder)
chain: B1 chain with S51I, C86E
B16: A80E (designed binder)
chain: B1 chain with A80E, C86E
B17: Y37T (designed binder)
chain: B1 chain with Y37T, C86E
B18: L39S (designed binder)
chain: B1 chain with L39S, C86E
B19: E86L (designed binder)
chain: B1 chain with C86L
B20: L96K (designed binder)
chain: B1 chain with C86E, L96K
B21: S53T (designed binder)
chain: B1 chain with S53T, C86E
B22: A76M (designed binder)
chain: B1 chain with A76M, C86E
B23: E5F (designed binder)
chain: B1 chain with E5F, C86E
B24: R92K (designed binder)
chain: B1 chain with C86E, R92K
B25: L52G (designed binder)
chain: B1 chain with L52G, C86E
B26: R97C (designed binder)
chain: B1 chain with C86E, R97C
B27: V55M (designed binder)
chain: B1 chain with V55M, C86E
B28: K103L (designed binder)
chain: B1 chain with C86E, K103L
B29: V55S (designed binder)
chain: B1 chain with V55S, C86E
B30: K103Q (designed binder)
chain: B1 chain with C86E, K103Q
B31: Q48H (designed binder)
chain: B1 chain with Q48H, C86E
B32: K66D (designed binder)
chain: B1 chain with K66D, C86E
B33: E9H (designed binder)
chain: B1 chain with E9H, C86E
B34: L75W (designed binder)
chain: B1 chain with L75W, C86E
B35: A42H (designed binder)
chain: B1 chain with A42H, C86E
B36: E81D (designed binder)
chain: B1 chain with E81D, C86E
B37: Q4H (designed binder)
chain: B1 chain with Q4H, C86E
B38: V57I (designed binder)
chain: B1 chain with V57I, C86E
B39: A105H (designed binder)
chain: B1 chain with C86E, A105H
B40: V60R (designed binder)
chain: B1 chain with V60R, C86E

This note sets out measurements from publication PMC12416549 (2024).

Residue numbers refer to the chain shown, from its start. Names may count otherwise.

In this test the target is T1, TNFR1. Kind of test: yeast display SC50.
Regarding B1, the “apparent Kd (screen)” value amounted to 0.653 nM. For B2 the value was 0.593 nM; for B3, 1.05 nM. For B4 the value was 0.446 nM. In the case of B5 it was 0.718 nM; in that of B6, 0.653 nM. In the case of B7, the “apparent Kd (screen)” value is 0.593 nM. On to B8, for which the “apparent Kd (screen)” value is 0.718 nM. For B9 the value was 0.869 nM. Turning to B10, the “apparent Kd (screen)” value is 0.49 nM.

Turning to B11, the “apparent Kd (screen)” value is 0.718 nM. As for B12, the “apparent Kd (screen)” value is 0.446 nM. B13: the “apparent Kd (screen)” value is 1.4 nM. In the case of B14 it was 2.48 nM; in that of B15, 1.86 nM; in that of B16, 0.49 nM.

Regarding B17, the “apparent Kd (screen)” value was found to be 10.4 nM.

In the case of B18, the “apparent Kd (screen)” value was determined as 2.25 nM. In the case of B19 it was 3 nM. For B20 the value was 0.49 nM; for B21, 0.49 nM. For B22 the value was 0.869 nM; for B23, 0.653 nM; for B24, 0.593 nM.

For the molecule B25, the “apparent Kd (screen)” value was 1.27 nM. For B26 the value was 1.05 nM; for B27, 2.73 nM; for B28, 1.86 nM. As to B29, the “apparent Kd (screen)” value came out at 1.86 nM. In the case of B30 it was 0.539 nM; in that of B31, 0.653 nM. Consider B32, for which the “apparent Kd (screen)” value was 0.49 nM. For B33 the value was 0.593 nM; for B34, 1.16 nM; for B35, 3 nM. For B36 the value was 0.718 nM; for B37, 0.79 nM; for B38, 2.73 nM. In the case of B39 it was 0.49 nM. As to B40, the “apparent Kd (screen)” value is 12.5 nM.
